Assay results as given in the supplement of paper PMC10567573.

B1: RIT1 (parent)
chain: FHALVREIRRKEKEAVLAMEKKSK
B2: MMP1 (parent)
chain: MFFKDRFYMRTNPFYPEVELNFIS

Variants of: B1
Assay: protein stability index of a GFP-peptide fusion (GPS, HEK-293T) (PSI 1-6); higher = more stable
Settings: c terminus: a fixed tail appended
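Further: lentivirally expressed fusions sorted by FACS into six bins by GFP to DsRed ratio, PSI derived from sequencing read proportions per bin multiplied by bin number.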

Protein stability index: each site, then its substitutions
L4: D 3.26 | M 3.92 | W 1.77 | I 2.35 | P 3.1 | N 2.65 | F 2.35 | Y 2.66 | A 2.06 | K 2.99 | Q 2.08 | G 2.52 | C 1.92 | H 2.36 | E 3.18 | R 2.44 | V 2.24 | T 2.23 | S 2.77
V5: C 2.08 | G 2.14 | H 1.97 | A 1.46 | D 2.85 | F 1.97 | I 2.56 | E 2.65
H2: G 2.83 | T 2.55 | E 3.37 | M 2 | I 2.04 | W 3.04 | R 3.02 | S 1.96 | C 2.57 | A 2.64 | Q 2.95 | F 2.73 | Y 2.72 | D 3.76 | P 3.35 | N 3.23 | K 2.73 | L 2.61
F1: L 2.86 | V 3.04 | C 3.53 | S 4.14 | K 4.06 | W 2.43 | A 3.95 | R 4.48 | Y 1.92 | D 4.03 | N 4.67 | I 2.93 | T 4.16 | H 4.2 | P 4.61 | Q 4.72 | M 3.69 | E 5.2 | G 4.36
A3: H 1.41 | F 2.34 | I 2.12 | E 1.48 | D 2.19 | G 2.15 | L 1.97 | N 1.87 | R 2.05 | M 1.96 | V 1.69 | P 1.45 | K 2.04 | S 1.42 | Y 2.13 | Q 2.45 | T 2.28 | C 2.07

Variants of: B2
Assay: as above
Settings: c terminus: a fixed tail appended

Protein stability index of substitutions, site by site:
M9: V 2.71 | T 2.76 | R 2.1 | I 2.02 | L 1.86 | F 2.56 | E 1.93 | W 3.91 | H 1.83
Y15: C 3.47 | R 2.66 | N 2.94 | Q 1.34 | A 1.72 | G 2.09 | M 1.97 | K 2.72 | L 3.33 | P 2.4 | D 3.35 | V 2.37 | W 2.93 | E 2.15 | H 2.19
K4: F 3.7 | V 1.49 | H 3.26 | M 2.3 | I 3.25 | S 3.15
F22: G 2.22 | N 2.15 | I 3.29 | Q 1.9 | L 3.27 | P 2.18 | T 1.65 | C 2.19 | D 1.31 | W 2.09
F7: K 2.45 | D 1.91 | P 3.98 | A 3.4 | R 3.28 | V 4.52 | M 2.98
R10: E 2.37 | S 3.42 | A 1.52 | V 3 | N 3.09 | T 2.47 | C 3.2
E17: W 3.19 | P 1.8 | R 2.57 | I 3.71 | D 1.97 | F 2.19 | L 2.55 | G 2.52 | N 3.69 | S 2.15 | Y 2.42
N12: S 2.74 | I 2 | M 2.94 | G 2.91 | R 3.81 | Y 3.12 | V 2.43 | W 3 | K 3.17 | P 3.4 | C 3.02 | E 4.11 | L 2.51 | D 3.11
S24: P 3.07 | E 2.3 | A 2.44 | Q 2.87 | W 3.15 | V 3.21 | R 2.05 | M 2.75 | L 4.01 | N 2.88 | T 3.07
M1: A 1.89 | E 2.86 | I 2.17 | W 3.52 | Y 1.86 | K 2.94 | F 3.03 | V 3.89 | H 2.05 | C 2.83 | R 2.2
D5: M 2.63 | A 2.8 | L 2.49 | V 2.6 | S 2.64 | W 1.94 | P 3.51 | Y 2.38 | I 2.52 | N 2.77 | T 3.47 | G 3.47
E19: D 2.34 | F 3.27 | M 1.47 | S 2.61 | H 3.47 | C 3.18 | W 1.3 | Q 2.3 | A 3.48 | T 2.44
L20: G 1.59 | S 2.35 | K 3.34 | Q 1.36 | H 2.98 | V 2.11 | A 2.27 | C 3.04 | W 3.09 | F 3.19 | E 3.27 | P 1.99
R6: C 2.09 | F 2.48 | S 2.64 | Q 3.4 | N 2.96 | M 2.35 | K 3.46
F14: T 2.33 | H 2.82 | Y 2.96 | V 3.62 | R 3.1 | C 2.65 | N 2.87 | K 3.31 | I 2.54 | E 3.46
F3: H 1.89 | D 1.85 | S 2.9 | R 1.55 | G 4.14 | I 2.64 | V 2.82 | N 1.73 | E 1.5 | L 2.29
P16: R 1.98 | Y 2.82 | C 2.71 | M 1.74 | L 1.75 | H 2.95 | Q 3.75 | G 3.15 | F 2.88
T11: H 1.78 | E 3.11 | S 2.32 | I 1.63 | G 2.64 | K 3.17 | N 2.96 | P 3.77 | L 2.72 | V 4.1 | A 3.18 | Q 2.59 | D 3.5 | R 2.28
Y8: E 1.89 | W 2.96 | G 2.07 | D 2.43 | A 2.69 | K 1.99 | H 2.22 | I 2.73 | M 2.89 | C 3.33 | S 3.33
P13: Y 2.35 | M 2.66 | V 3.62 | R 3.31 | L 2.37 | Q 1.76 | I 2.85 | G 2.62
N21: F 2.33 | R 2.74 | W 2.85 | V 2.67 | Y 3.15 | D 3.07 | S 2.91 | K 1.96 | T 3.97 | M 1.94 | L 3 | H 2.76 | C 3.71 | Q 3.29 | P 2.26
F2: Q 2.26 | L 2.36 | T 2.29 | R 4.3 | E 2.98 | A 3.29 | P 2.06 | G 3.1 | I 2.59 | D 2.71
V18: C 2.99 | W 3.22 | F 2.61 | N 1.78 | R 1.87 | L 2.41 | Q 2.35 | H 3.06 | G 2.08 | M 2.52 | T 3.87 | Y 2.64 | K 3.54 | D 2.66 | A 3.25
I23: C 2.81 | R 3.09 | N 1.53 | G 1.67 | L 3.31 | M 3.28 | Q 2.34 | P 3.27
